Experimental findings from patent US5972599, “High affinity nucleic acid ligands of cytokines” (NeXstar Pharmaceuticals, Inc.) are described below.

Positions count from the first letter of the chain named. Where only a bound is given, the exact number is not on record here.

First the molecules themselves.
B1: TNF 4C (ssRNA)
RNA: GGGAGCUCAGAAUAAACGCUCAACUAGGCCCACCGUCCCUUCUAACAACGUCUUCGACAUGAGGCCCGGAUCCGGC
B2: TNF 3A (ssRNA)
RNA: GGGAGCUCAGAAUAAACGCUCAAGAUCGACGCAUCGAGUCGCCUCAUCGCUCCUUCGACAUGAGGCCCGGAUCCGGC
B3: TNF 12C (ssRNA)
RNA: GGGAGCUCAGAAUAAACGCUCAAGUCCGCAUGAUGCUUCGAACAGCAUACAACUUCGACAUGAGGCCCGGAUCCGGC
B4: TNF 8A (ssRNA)
RNA: GGGAGCUCAGAAUAAACGCUCAACAGUGGAGGCUGUCCAAACCCACCCACCCCUUCGACAUGAGGCCCGGAUCCGGC
B5: TNF 11C (ssRNA)
RNA: GGGAGCUCAGAAUAAACGCUCAAUGAGGCGCGCCACAGGAUGGCCCUCAACCCUUCGACAUGAGGCCCGGAUCCGGC
B6: TNF 10C (ssRNA)
RNA: GGGAGCUCAGAAUAAACGCUCAACGCCGAGACCCACCUCAUAACACCGCUACCUUCGACAUGAGGCCCGGAUCCGGC
B7: TNF 7C (ssRNA)
RNA: GGGAGCUCAGAAUAAACGCUCAACAGGUGGCACCGCCCUUCCAACACGGUGCGUUCGACAUGAGGCCCGGAUCCGGC
B8: TNF 15C (ssRNA)
RNA: GGGAGCUCAGAAUAAACGCUCAACUAGUUCAACCGUCCCUUCUAACAACCGUCUUCGACAUGAGGCCCGGAUCCGGC
B9: TNF 3A 2'F (ssRNA)
RNA: B2 RNA
modifications: 2'-F all C and U
B10: TNF 25A 2'F (ssRNA)
RNA: B3 RNA with U25G, A33C, U34C, G35C, U38C, G40U, A49G
modifications: 2'-F all C and U
B11: TNF 4A 2'F (ssRNA)
RNA: GGGAGCUCAGAAUAAACGCUCAACGCACUCGGACGGAAUCUCCGUAGGACACGUUCGACAUGAGGCCCGGAUCCGGC
modifications: 2'-F all C and U
B12: TNF 8C 2'F (ssRNA)
RNA: GGGAGCUCAGAAUAAACGCUCAAGUCCACACUUUGCCGAGCGUCCUAGUGUUCGACAUGAGGCCCGGAUCCGGC
modifications: 2'-F all C and U
B13: TNF 9C 2'F (ssRNA)
RNA: GGGAGCUCAGAAUAAACGCUCAAAUGGUGGAGGCCAUCUCAAACCCACGACACUUCGACAUGAGGCCCGGAUCCGGC
modifications: 2'-F all C and U
B14: TNF 7C 2'F (ssRNA)
RNA: B7 RNA
modifications: 2'-F all C and U
B15: IL-4 2'F-21 (ssRNA)
RNA: GGGAGACAAGAAUAAACGCUCAAAGGAGCGCCAUGAAGCAAAGGGAGGAUUGUGGUGGAAGGCUUCGACAGGAGGCUCACAACAGGC
modifications: 2'-F all C and U
B16: IL-4 2'F-12 (ssRNA)
RNA: GGGAGACAAGAAUAAACGCUCAAGUCUGACUAUUGGGGCGCCACAAUAUCAACGGCUGUACUUCGACAGGAGGCUCACAACAGGC
modifications: 2'-F all C and U
B17: IL-4 2'NH2-29 (ssRNA)
RNA: GGGAGACAAGAAUAAACGCUCAAGAGCUGGUGAGCCACGUAUACGGCCUUAGGGGCUUGGGCGUUCGACAGGAGGCUCACAACAGGC
modifications: 2'-NH2 all C and U
B18: IL-4 2'F-18 (ssRNA)
RNA: GGGAGACAAGAAUAAACGCUCAAGCUGCCCAAGGAAUUUAACUUGGACCGCGAUCUGGAGUCUUCGACAGGAGGCUCACAACAGGC
modifications: 2'-F all C and U
B19: IL-4 2'F/NH2-18 (ssRNA)
RNA: GGGAGACAAGAAUAAACGCUCAACCGCCUGCGAUAGUUAGACCGUUGAGCUGAGAGCAACACUUUCGACAGGAGGCUCACAACAGGC
modifications: 2'-F all C, 2'-NH2 all U
B20: IL-4 2'F/NH2-28 (ssRNA)
RNA: GGGAGACAAGAAUAAACGCUCAAGAUCCUGCGACGCCAGGGGUGGAUAGGGGGAAGGGAGCGGUUCGACAGGAGGCUCACAACAGGC
modifications: 2'-F all C, 2'-NH2 all U
B21: IL-4 2'F/NH2-2 (ssRNA)
RNA: GGGAGACAAGAAUAAACGCUCAAGACGAACGACCAAGGGACGGGUGGGCAAAUAGGGAUGCCGUUCGACAGGAGGCUCACAACAGGC
modifications: 2'-F C, 2'-NH2 U
B22: IL-4 2'F/NH2-43 (ssRNA)
RNA: GGGAGACAAGAAUAAACGCUCAACAACGCUGACCAUGGGAGGAAUGUGGGAAGGGCGCCAGCGUUCGACAGGAGGCUCACAACAGGC
modifications: 2'-F C, 2'-NH2 U
B23: IL-4 2'F/NH2-16 (ssRNA)
RNA: GGGAGACAAGAAUAAACGCUCAAGGUACGACCAAGGAAUGUGGGUGGAAGAGGGCGCCGUACCUUCGACAGGAGGCUCACAACAGGC
modifications: 2'-F C, 2'-NH2 U
B24: IL-4 2'F/NH2-11 (ssRNA)
RNA: B23 RNA with C55U
modifications: 2'-F C, 2'-NH2 U
B25: IL-4 2'F/NH2-14 (ssRNA)
RNA: GGGAGACAAGAAUAAACGCUCAACAGCCAAGGGUUGGAUAGGGGGUAGGGAGCCGUAGCAGCGUUCGACAGGAGGCUCACAACAGGC
modifications: 2'-F C, 2'-NH2 U
B26: TNF 17A (ssRNA)
RNA: GGGAGCUCAGAAUAAACGCUCAAGGUCGAACUAGCGCUGGAGCGUGCGUUGGUUUCGACAUGAGGCCCGGAUCCGGC
B27: TNF 16A (ssRNA)
RNA: GGGAGCUCAGAAUAAACGCUCAAGGUGGAAGGCCUUUGAAGCCCGUACAUCUCCUUCGACAUGAGGCCCGGAUCCGGC
B28: TNF 21A (ssRNA)
RNA: GGGAGCUCAGAAUAAACGCUCAACGUCUAGGAACUGCGUCGCCUCAACAGCGCUUCGACAUGAGGCCCGGAUCCGGC
B29: TNF 5C (ssRNA)
RNA: GGGAGCUCAGAAUAAACGCUCAACAGUCACGAACGUGCGCCGGAAGAACGCUCUUCGACAUGAGGCCCGGAUCCGGC
B30: TNF 17C (ssRNA)
RNA: GGGAGCUCAGAAUAAACGCUCAAGAUCGAAGUUGUCGUCCGCCUCAGCGACUCUUCGACAUGAGGCCCGGAUCCGGC
B31: TNF 27A (ssRNA)
RNA: GGGAGCUCAGAAUAAACGCUCAAGUCGCUCGAUCGUUUCAUGUCCGUUCGACCUUCGACAUGAGGCCCGGAUCCGGC
B32: TNF 15A (ssRNA)
RNA: GGGAGCUCAGAAUAAACGCUCAACGUCGAUCGCGUGCUGUAGCCUCAGGCACCUUCGACAUGAGGCCCGGAUCCGGC
B33: TNF 22A (ssRNA)
RNA: GGGAGCUCAGAAUAAACGCUCAAGUCGGAUGGUUUUGCGCGUUUCCCGUUCGACAUGAGGCCCGGAUCCGGC
B34: TNF 19A (ssRNA)
RNA: GGGAGCUCAGAAUAAACGCUCAAGUCGAUGCGCAGUCCGCCUCAGCUGCACUGUUCGACAUGAGGCCCGGAUCCGGC
B35: TNF 26A (ssRNA)
RNA: GGGAGCUCAGAAUAAACGCUCAACCCUCGUGCGUGCGCUUGGAGCGUGGCGCAUUCGACAUGAGGCCCGGAUCCGGC
B36: TNF 6C (ssRNA)
RNA: GGGAGCUCAGAAUAAACGCUCAAUGUCGCACGUGUCCCGGCCCGCCCUACCCCUUCGACAUGAGGCCCGGAUCCGGC

T1 sequence (P01375 77-233, one chain of several): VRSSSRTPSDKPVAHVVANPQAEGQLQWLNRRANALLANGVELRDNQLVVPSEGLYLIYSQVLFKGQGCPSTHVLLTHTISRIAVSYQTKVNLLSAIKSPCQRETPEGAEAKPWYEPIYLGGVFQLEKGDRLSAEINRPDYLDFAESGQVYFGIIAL

One series addresses T1, TNF-alpha (Homo sapiens, UniProt P01375 P01375:77-233). In words: filter; class I. The following applies: tags: Genzyme or R&D Systems; chain copies: 3 inferred.
Broadly, the Kd is the concentration at which binding is half-saturated. Read a low Kd as tighter binding. B1: the dissociation constant (Kd) came to 92 nM.
The same measure, in the same setting: the figure for B2 is 135 nM; for B3 it is 690 nM.
B4 registered a dissociation constant (Kd) of 785 nM.
For the molecule B5, binding was put at a Kd of 140 nM.
The molecule B6 returned a Kd of 500 nM.
In turn, B7 had a Kd of 297 nM.
As to B8, the Kd is 124 nM.

The next series deals with T1, TNF-alpha. In words: filter; 2'F version. Particulars: tags: Genzyme or R&D Systems; chain copies: 3 inferred.
The molecule B9 yielded a Kd of 623 nM.
As for B10, the Kd worked out at 445 nM.
B11: binding was put at a Kd of 178 nM.
As for B12, binding was put at a Kd of 503 nM.
The molecule B13 returned a Kd of 400 nM.
B14: the Kd turned out to be 442 nM.

The target in a further series is T2, IL-4 (Homo sapiens, UniProt P05112 P05112:25-153). In words: filter; full-length. The following applies: tags: R&D Systems.
T2 sequence (P05112 25-153, one chain of several): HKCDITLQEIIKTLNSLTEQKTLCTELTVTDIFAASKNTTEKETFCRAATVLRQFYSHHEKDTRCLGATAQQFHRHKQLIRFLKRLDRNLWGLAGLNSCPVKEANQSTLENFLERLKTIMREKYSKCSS
With B15, the affinity, expressed as Kd, was 11 nM.
With B16, the affinity, expressed as Kd, was 30 nM.
For the molecule B17, binding was put at a Kd of 8.3 nM.
Same read-out and setting: the figure for B18 is 43 nM; for B19 it is 30 nM.
In turn, B20 displayed a Kd of 8.7 nM.

A further series deals with T1, TNF-alpha. In words: competition; U937 cells. Particulars: tags: Genzyme or R&D Systems; chain copies: 3 inferred. On the procedure:
A receptor binding competition assay was used to determine the bioactivity of the RNA ligands. ^125I labelled hTNFα at 0.1 nM was incubated in 50 µl of binding medium (PBS with 0.5 mM Mg^++, 0.2% BSA, 0.02% sodium azide, 1 U/µl RNasin) for 15 min at 4° C. with serially diluted competitors at 10^-4 to 10^-11 M, and 1×10^4/µl U937 cells. Duplicate aliquots were subsequently removed, centrifuged through 2:1 dibutyl-phthalate:dinonyl-phthalate mixture to separate free and bound ^125I labelled hTNFα, and the radioactivity in the pellet was measured on a gamma counter. Nonspecific binding was determined by inclusion of a 200-fold molar excess of unlabeled TNF.
The Ki is a measure of affinity in units of concentration, obtained from inhibition or displacement. A lower Ki goes with higher affinity. For the molecule B1, the inhibition constant Ki was 1200 nM.

A further series deals with T2, IL-4. In words: filter; group 2 stated to bind IL-4. The following applies: tags: R&D Systems.
As for B21, the binding result was “binds”.
As to B22, the binding result is listed as “binds”.
Regarding B23, the binding result was “binds”.
Regarding B24, the binding result is listed as “binds”.
On the same count and under the same terms, then B25, with “binds”.

A further series addresses T1, TNF-alpha. In words: filter; no value shown, Kd above 1 uM per footnote; DPBS. Particulars: tags: Genzyme or R&D Systems; chain copies: 3.
Molecule B26 registered a Kd greater than 1000 nM.
The same measure, in the same setting: the figure for B27 is greater than 1000 nM; for B28 it is greater than 1000 nM; for B29 it is greater than 1000 nM.
In turn, B30 showed a Kd greater than 1000 nM.
In turn, B31 returned a Kd greater than 1000 nM.
As for B32, the Kd was greater than 1000 nM.
Same read-out and setting: then B33, with greater than 1000 nM; and B34, with greater than 1000 nM; and B35, with greater than 1000 nM.
As to B36, the Kd was greater than 1000 nM.
